The results in this text go back to PMC11206880, “The RNA Helicase Ded1 from Yeast Is Associated with the Signal Recognition Particle and Is Regulated by SRP21” (Molecules, 2024).

Experiment [1] concerns the target T1, Recombinant Ded1-His (Saccharomyces cerevisiae, UniProt P06634 1-604).
T1 construct: Ded1, DEAD-box RNA helicase of budding yeast, expressed from the pET22b plasmid; also called purified Ded1
The experiment can be described thus: co-IP; as a3, but SRP14, SRP21, SRP54 and Sec65 incubated together with Ded1; recovered with Ded1-specific IgG beads. The note with it: both partners purified.

In experiment [2] the target is T1, Recombinant Ded1-His. Description: co-IP; purified Ded1 (4 µg) incubated with one purified SRP protein (4-6 µg), no RNA, 1x PBS with 2 mM MgCl2, 45 min, 30 °C; recovered with Ded1-specific IgG cross-linked to protein A-Sepharose beads; SDS-PAGE, Coomassie blue. The note with it: both partners purified.

T1 sequence (P06634 whole entry): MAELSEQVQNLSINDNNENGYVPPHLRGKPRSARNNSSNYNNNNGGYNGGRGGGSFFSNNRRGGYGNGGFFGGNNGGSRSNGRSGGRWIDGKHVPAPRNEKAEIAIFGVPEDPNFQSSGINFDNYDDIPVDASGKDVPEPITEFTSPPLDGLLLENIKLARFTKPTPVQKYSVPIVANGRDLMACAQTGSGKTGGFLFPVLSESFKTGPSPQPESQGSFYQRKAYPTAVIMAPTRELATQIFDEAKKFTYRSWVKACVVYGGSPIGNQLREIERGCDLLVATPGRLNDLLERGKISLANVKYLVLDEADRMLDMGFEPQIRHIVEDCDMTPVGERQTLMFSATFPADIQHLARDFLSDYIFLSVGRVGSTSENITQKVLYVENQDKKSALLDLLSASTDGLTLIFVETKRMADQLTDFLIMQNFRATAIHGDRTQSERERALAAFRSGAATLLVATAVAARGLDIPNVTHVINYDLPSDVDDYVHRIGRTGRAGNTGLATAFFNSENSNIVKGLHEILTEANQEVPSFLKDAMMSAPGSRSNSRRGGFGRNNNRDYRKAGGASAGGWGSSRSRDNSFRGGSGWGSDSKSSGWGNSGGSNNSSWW

B1: His-tagged SRP14 (natural protein, yeast (S. cerevisiae), UniProt P38985 1-146, looked up)
chain: MANTGCLSPGAFLSKVPEFFQTANEKHITVRLTAKRLIEHDPVEGNLEFDSTNHPDYDVSKKASEISVSSRSDREYPLLIRMSYGSHDKKTKCSTVVKASELDQFWQEYSSVFKGGMQNLIKKKKKKSKNGTISKTGKKNKVAKKN
notes: SRP14 of yeast, subcloned into the NdeI and XhoI sites of pET22b; source: E. coli Rosetta (DE3), purified (Ni-NTA)
Turning to B1, the binding result in the experiment with Recombinant Ded1-His [1] is recorded as “binds”.

B2: His-tagged Sec65 (natural protein, yeast (S. cerevisiae), UniProt P29478 1-273, looked up)
chain: MPRLEEIDDFNDIDDLDMELAELDPSLRTPIAPKITPKVVRSQDQENPAFLPGTNNNSNSNNNSSNEKEQLSFINPKTGKVERSEAISKKDLEEVKRFQVLYPCYFDINRSHKEGRRVPKELAVENPLAKTMADAVRELGILCIFEGEKCHPQDFGNPGRIRVLFKENGQLIGAATKFKGGKRQLMKAVGEYMKRHPTTIESLREIPYGPDFDNIEFKKIPRVKGFKMNEIVPLHSPFLMGHPMTKSVYETPKITAAEKSFKPPKNKYKVVRR
notes: Sec65 of yeast, cloned into the XhoI and BamHI sites of pET19b; source: E. coli Rosetta (DE3), purified (Ni-NTA)
Consider B2, for which the binding result with Recombinant Ded1-His [2] is listed as “binds”.
